Assay results published in paper PMC13228514, “The protocadherin-15-LHFPL5 tip link complex is a heterotetrameric assembly in hair cell stereocilia” (Biophysical Journal, 2026).

B1: native protocadherin-15 (PCDH15) from mouse cochlea or utricle (natural protein)
chain: not shown
notes: protocadherin-15, mouse, endogenous in inner ear tissue; also called native PCDH15; source: endogenous, cochlea or utricle of P6 mice, solubilized (1% C12M, 0.2% CHS), supernatant
B2: native lipoma HMGIC fusion partner-like protein 5 (LHFPL5) from mouse cochlea or utricle (natural protein, UniProt Q4KL25 1-219, looked up)
chain: MVKLLPAQEAAKIYHTNYVRNSRAVGVMWGTLTICFSVLVMALFIQPYWIGDSVSTPQAGYFGLFSYCVGNVLSSELICKGGPLDFSSIPSRAFKTAMFFVALAMFLIIGSIICFSLFFVCNTATVYKICAWMQLAAATGLMIGCLVYPDGWDSSEVRRMCGEQTGKYTLGHCTIRWAFMLAILSIGDALILSFLAFVLGYRQDKLLPDDYKADGNEEV
notes: LHFPL5 (TMHS), mouse, endogenous in inner ear tissue; also called native LHFPL5; TMHS; source: endogenous, cochlea or utricle of P6 mice, solubilized (1% C12M, 0.2% CHS), supernatant
B3: recombinant protocadherin-15 (PCDH15), residues 1-1462 (EC1-EC11 and part of the cytoplasmic region) (domain or fragment)
chain: not shown
notes: signal peptide in the construct; also called recombinant PCDH15; source: HEK293 tsa201 cells co-infected with PCDH15 and LHFPL5 BacMam viruses; purified as a complex with LHFPL5 (Strep-Tactin, TALON, SEC)
B4: recombinant lipoma HMGIC fusion partner-like protein 5 (LHFPL5), residues 2-219 (natural protein, Mus musculus, UniProt Q4KL25 2-219, looked up)
chain: VKLLPAQEAAKIYHTNYVRNSRAVGVMWGTLTICFSVLVMALFIQPYWIGDSVSTPQAGYFGLFSYCVGNVLSSELICKGGPLDFSSIPSRAFKTAMFFVALAMFLIIGSIICFSLFFVCNTATVYKICAWMQLAAATGLMIGCLVYPDGWDSSEVRRMCGEQTGKYTLGHCTIRWAFMLAILSIGDALILSFLAFVLGYRQDKLLPDDYKADGNEEV
notes: the results call the construct the full-length protein; also called TMHS; recombinant LHFPL5; source: HEK293 tsa201 cells co-infected with PCDH15 (or PCDH15_(1EC)) and LHFPL5 BacMam viruses; purified as a complex (Strep-Tactin, TALON, SEC)

Tests used:
[1] = molecular target: the molecule itself; test: single-molecule pull-down (SiMPull); solubilized cochlea supernatant of P6 mice applied to slide coated with anti-PCDH15 mAb 8D1; detected with 39G7 Fab-GFP and anti-LHFPL5 mAb-Alexa647 (colocalization) or with 39G7 Fab-GFP or anti-LHFPL5 Fab-GFP (photobleaching steps); TIRF
[2] = molecular target: the molecule itself; test: single-molecule pull-down (SiMPull); purified co-expressed recombinant PCDH15/LHFPL5 complex (100 pM) captured on slide by biotinylated anti-PCDH15 mAb 8D1; detected with 39G7 Fab-GFP and anti-LHFPL5 mAb-Alexa647 (colocalization) or with 39G7 Fab-GFP or anti-LHFPL5 Fab-GFP (photobleaching steps); TIRF; buffer with 0.005% C12M, 0.001% CHS, pH 8.0

Protein	stoichiometry N [1]	stoichiometry N [2]
B1	2	
B2	2	
B3		2
B4		2
